B1: [Peptide E] nLDL (peptide)
chain: TGKRYRLKTLRTLKKTSLLEAA
B2: [Peptide D] nLDL (peptide)
chain: YKLEGTTRLTRKRGLKLATALS
B3: [Peptide B] nLDL (peptide)
chain: GTTRLTRKRGLKL
B4: [Peptide C] nLDL (peptide)
chain: YKLQGTTRLTRKRGLKLATALS

A word on the Kd: it is the free concentration of one partner at which half of the binding sites on the other are occupied at equilibrium, for simple one-to-one binding.

Sequence of LDL receptor (cell surface) (P01130 22-788): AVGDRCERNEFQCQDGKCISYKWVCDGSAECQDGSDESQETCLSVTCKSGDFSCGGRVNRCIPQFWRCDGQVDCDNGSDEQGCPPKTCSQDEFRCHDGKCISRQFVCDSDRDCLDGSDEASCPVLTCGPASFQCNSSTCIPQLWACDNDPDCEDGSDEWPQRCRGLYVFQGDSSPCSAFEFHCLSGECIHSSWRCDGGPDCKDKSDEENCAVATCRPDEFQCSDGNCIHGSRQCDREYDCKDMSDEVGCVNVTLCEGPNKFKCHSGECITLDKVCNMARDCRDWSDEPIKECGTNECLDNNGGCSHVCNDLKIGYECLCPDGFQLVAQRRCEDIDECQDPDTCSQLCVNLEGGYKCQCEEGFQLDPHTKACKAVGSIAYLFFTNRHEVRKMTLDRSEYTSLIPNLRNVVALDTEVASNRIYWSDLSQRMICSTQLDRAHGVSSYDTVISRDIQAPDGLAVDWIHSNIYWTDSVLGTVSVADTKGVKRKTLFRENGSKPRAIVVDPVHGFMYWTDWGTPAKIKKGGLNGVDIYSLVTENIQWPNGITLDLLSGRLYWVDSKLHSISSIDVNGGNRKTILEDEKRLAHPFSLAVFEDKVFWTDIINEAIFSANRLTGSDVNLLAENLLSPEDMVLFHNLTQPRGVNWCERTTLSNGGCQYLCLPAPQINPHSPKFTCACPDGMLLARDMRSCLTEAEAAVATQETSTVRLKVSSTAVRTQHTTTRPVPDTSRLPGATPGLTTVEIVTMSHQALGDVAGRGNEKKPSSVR

The assay concerns the target LDL receptor (cell surface) (UniProt P01130). As to the kind of experiment: other, cell binding, total binding double reciprocal plot.
For B1, the Kd is 15.2 µM.

On to B2, for which the affinity, expressed as Kd, was 3 µM.

B3 showed a Kd of 9.3 µM.

Molecule B4 had a Kd of 7.7 µM.

For the origin of these results see patent publication US20120059148 (published 2012).
